We go through 13 molecules from US20080176814, “DNA-BASED APTAMERS FOR HUMAN CATHEPSIN G” (GENTIUM SPA, published 2008).

One may read the Kd as the constant that tells how readily two partners part at equilibrium. Low readings indicate a tighter complex, high ones a looser complex.

Where two headings read alike, the source gives them in different places.

Series [1] concerns the target T1, Cathepsin G (Homo sapiens) (UniProt P08311).
T1 sequence: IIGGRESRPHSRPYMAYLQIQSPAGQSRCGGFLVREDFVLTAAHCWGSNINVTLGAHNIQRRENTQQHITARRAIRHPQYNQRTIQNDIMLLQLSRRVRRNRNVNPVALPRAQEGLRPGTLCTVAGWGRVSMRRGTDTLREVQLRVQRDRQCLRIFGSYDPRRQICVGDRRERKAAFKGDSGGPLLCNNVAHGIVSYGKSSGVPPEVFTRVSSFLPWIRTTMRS
The note with it: affinity chromatography; same buffer.

Series [2] concerns the target T1, Cathepsin G (Homo sapiens). Put plainly: SPR. A general note: In SPR one partner is held on a chip, and binding of the other changes the refractive index at the surface.
For series [3], the target named is T1, Cathepsin G (Homo sapiens). Put plainly: SELEX. The note with it: cycle 9 yield (0.4% at cycle 1); 30 mM Tris pH 7.5, 150 mM NaCl, 5 mM KCl, 5 mM MgCl2.
Series [4] addresses T1, Cathepsin G (Homo sapiens). To be noted: affinity chromatography; same buffer. The source holds these as a separate data set.
The target in series [5] is T2, Cathepsin G (Homo sapiens, UniProt P08311 P08311:21-244).
T2 sequence: T1 sequence
To be noted: affinity chromatography; G-quartet control.

The target of series [6] is T2, Cathepsin G. In words: affinity chromatography; same buffer. To be noted: tags: Europa Bioproducts or Calbiochem; from human neutrophils (SPR, amine-coupled to CM5 chip). As to the method: The affinity of the oligonucleotides was determined by affinity chromatography as performed in the selection. Different aliquots of each oligonucleotide were previously incubated with 15 μg of Cathepsin G in ice. The solution was then loaded in the min-chromatography column used for the selection and washed with 15 volumes of buffer IB. After one hour incubation, it was washed with six volumes of buffer EB. Fractions of the same volumes were collected and counted.
We evaluated the oligonucleotide binding to cathepsin G by affinity chromatography in analogy with the selection method. The affinity of the aptamer CG51 was firstly compared with AC and GT oligonucleotides of the same length that, as mentioned, are clearly unable to fold into any structure characterised by Watson-Crick base pairs or G quartets formation. The complementary sequence of CG51, called cmpCG51, was included as a control.

[7] abbreviates: relative potency vs GT 100, 25 C.

Regarding GT [(GT)40 / GT 80], in series [1], the dissociation constant Kd is 1.2 nM. This molecule showed a binding signal in series [2] (setting [7]) of 0.32.

In series [3], “CGTACGGAATTCGCTAGCNNNNNNNNNNNNNNNNNNNNNNNNNNNNNNNNNNNNNNNNNNNNNNNNNNNNNNNNNNNNGGATCCGAGCTCCACGTG [cycle 9 selected pool]” returned a binding signal of 42%.

For the molecule GT [GT 100], the binding signal in series [2] (relative potency, reference standard, HBS-EP pH 7.4, 25 C) amounted to 1.

GT [(GT)30 / GT 60] returned a binding signal in series [2] (setting [7]) of 0.144. This molecule also yielded a dissociation constant (Kd) in series [4] of 1 nM.

Regarding GT [GT 30], the binding signal in series [2] (setting [7]) stood at 0.002.

For GT [(GT)10 / GT 20], in series [1], the Kd was 2 nM.

AC [(AC)30]: the Kd in series [4] came out at 0.8 nM.

GT [(GT)20 / GT 40] gave a Kd in series [1] of 1.5 nM. In addition, the binding signal in series [2] (setting [7]) stood at 0.016.

The molecule THR thrombin aptamer returned a Kd with Cathepsin G [5] of 4 nM.

In turn, AC [AC 80] returned a binding signal in series [2] (setting [7]) of 0.017.

For AC [AC 40], in series [2] (setting [7]), the binding signal turned out to be 0.0047.

On to AC [(AC)60], for which the dissociation constant Kd in series [1] was found to be 1.2 nM.

B1: cmpCG51 (ssDNA)
DNA: ACACGAATACCCTCTGTGCTCAGCGTAACACCCAAGCGTATACCCACATATCACACGTTG
modifications: [NONE]
In the series with Cathepsin G [6], B1 returned a Kd of 0.6 nM. This counts as sub-nanomolar.
